Results on three substances are retold here after article PMC5482323.

Assay [1] concerns the target basigin (Homo sapiens) (UniProt P35613). The following applies: cited from earlier work.
Assay [2] concerns the target basigin (CD147), Ig domains 1 and 2 of the short isoform (aa 22-205) (UniProt P35613). As to the kind of experiment: SPR; BIAcore T200; basigin immobilised on a CM5 chip by amine coupling (950 RU); PfRH5 injected as a twofold dilution series from 2 uM, 120 s at 30 uL/min, 300 s dissociation; 20 C; 10 mM HEPES pH 7.4, 150 mM NaCl, 3 mM EDTA, 0.005% Tween-20, 2 mg/mL dextran, 1 mg/mL salmon sperm DNA; global 1:1 interaction model.

What is called Kd is the constant that tells how readily two partners part at equilibrium.

Take PfRH5 (from UniProt Q8IFM5): the Kd in assay [1] was 1000 nM.

“Plasmodium falciparum reticulocyte-binding protein homolog 5 with C-terminal C-tag (EPEA) (from UniProt Q8IFM5 26-526) (domain or fragment)” gave a Kd in assay [2] of 390 nM.

“Plasmodium falciparum reticulocyte-binding protein homolog 5 with C-terminal hexa-histidine tag (from UniProt Q8IFM5 26-526) (domain or fragment)” showed a Kd in assay [2] of 830 nM.
